Measured values as given in US20240279288A1, “APPLICATION OF PLANT JAZ PROTEINS AND DERIVED POLYPEPTIDES IN PREVENTION AND TREATMENT OF HUMAN AND ANIMAL TUMORS” (ANYANG INSTITUTE OF SINO-COTTON INDUSTRY INNOVATION, priority 2021, published 2024).

How the values were obtained:
GhMYC2 = test: Yeast two hybrid with GhMYC2; format: binding, cotton
Protocol: (§1) The study on Arabidopsis had shown that the inhibition of JAZ protein on JA signaling was mainly achieved by inhibiting the transcription factor function of MYC, which had been experimentally verified by us in cotton. Based on the phylogenetic tree of Arabidopsis and cotton JAZs, we screened 6 cotton JAZs (GhJAZ1, GhJAZ7, GhJAZ9, GhJAZ10, GhJAZ11 and GhJAZ31), which were analyzed with GhMYC2, GhNINJA, GhTPL, GhHDA6, and GhCOI1 for yeast two hybrid. The amino acid sequence of GhJAZ1 was set forth in SEQ ID No. 4, and the corresponding encoding gene sequence was set forth in SEQ ID No. 39; the amino acid sequence of GhJAZ7 was set forth in SEQ ID No. 7, and the corresponding encoding gene sequence was set forth in SEQ ID No. 42; the amino acid sequence of GhJAZ9 was set forth in SEQ ID No. 2, and the corresponding encoding gene sequence was set forth in SEQ ID No. 37; the amino acid sequence of GhJAZ10 was set forth in SEQ ID No. 3, and the corresponding encoding gene sequence was set forth in SEQ ID No. 38; the amino acid sequence of GhJAZ11 was set forth in SEQ ID No. 5, and the corresponding encoding gene sequence was set forth in SEQ ID No. 40; and the amino acid sequence of GhJAZ31 was set forth in SEQ ID No. 9, and the corresponding encoding gene sequence was set forth in SEQ ID No. 44. The amino acid sequence of GhMYC2 was set forth in SEQ ID No. 71, and the corresponding encoding gene sequence was set forth in SEQ ID No. 72; the amino acid sequence of GhNINJA was set forth in SEQ ID No. 73, and the corresponding encoding gene sequence was set forth in SEQ ID No. 74; the amino acid sequence of GhTPL was set forth in SEQ ID No. 75, and the corresponding encoding gene sequence was set forth in SEQ ID No. 76; the amino acid sequence of GhHDA6 was set forth in SEQ ID No. 77, and the corresponding encoding gene sequence was set forth in SEQ ID No. 78; and the amino acid sequence of GhCOI1 was set forth in SEQ ID No. 79, and the corresponding encoding gene sequence was set forth in SEQ ID No. 80. […]

GhTPL = test: Yeast two hybrid with GhTPL; format: binding, cotton
Protocol: as §1

Chain of GhTPL (as listed by the source): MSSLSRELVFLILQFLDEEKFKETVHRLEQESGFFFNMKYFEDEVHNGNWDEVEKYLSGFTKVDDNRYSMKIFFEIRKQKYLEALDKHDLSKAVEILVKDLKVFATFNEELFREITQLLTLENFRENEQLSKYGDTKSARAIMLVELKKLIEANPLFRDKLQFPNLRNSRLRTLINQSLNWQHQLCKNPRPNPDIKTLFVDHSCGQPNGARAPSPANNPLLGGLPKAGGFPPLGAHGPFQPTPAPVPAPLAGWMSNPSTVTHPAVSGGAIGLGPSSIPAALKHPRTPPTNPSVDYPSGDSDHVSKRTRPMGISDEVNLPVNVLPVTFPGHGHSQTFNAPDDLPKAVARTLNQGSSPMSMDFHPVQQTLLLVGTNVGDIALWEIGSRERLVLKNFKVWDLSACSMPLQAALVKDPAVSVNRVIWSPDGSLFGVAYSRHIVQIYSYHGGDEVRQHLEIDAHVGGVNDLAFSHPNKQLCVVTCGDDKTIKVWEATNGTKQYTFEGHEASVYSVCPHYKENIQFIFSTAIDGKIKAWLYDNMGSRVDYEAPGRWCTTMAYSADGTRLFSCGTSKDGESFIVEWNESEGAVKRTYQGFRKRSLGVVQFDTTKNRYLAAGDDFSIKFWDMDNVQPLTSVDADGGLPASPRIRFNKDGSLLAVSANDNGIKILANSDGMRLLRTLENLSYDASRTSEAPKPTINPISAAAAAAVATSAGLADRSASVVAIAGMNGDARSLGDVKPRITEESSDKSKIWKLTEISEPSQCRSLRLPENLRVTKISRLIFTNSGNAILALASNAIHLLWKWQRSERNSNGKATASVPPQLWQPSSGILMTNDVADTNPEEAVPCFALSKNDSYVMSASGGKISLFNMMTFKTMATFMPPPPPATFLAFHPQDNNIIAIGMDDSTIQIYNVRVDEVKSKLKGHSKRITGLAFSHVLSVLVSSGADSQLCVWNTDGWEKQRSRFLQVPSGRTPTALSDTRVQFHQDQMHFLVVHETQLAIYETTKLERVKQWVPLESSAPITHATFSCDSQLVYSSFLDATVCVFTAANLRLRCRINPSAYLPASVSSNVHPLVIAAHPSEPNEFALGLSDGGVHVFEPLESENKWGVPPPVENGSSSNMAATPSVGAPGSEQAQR
Chain of GhMYC2 (as listed by the source): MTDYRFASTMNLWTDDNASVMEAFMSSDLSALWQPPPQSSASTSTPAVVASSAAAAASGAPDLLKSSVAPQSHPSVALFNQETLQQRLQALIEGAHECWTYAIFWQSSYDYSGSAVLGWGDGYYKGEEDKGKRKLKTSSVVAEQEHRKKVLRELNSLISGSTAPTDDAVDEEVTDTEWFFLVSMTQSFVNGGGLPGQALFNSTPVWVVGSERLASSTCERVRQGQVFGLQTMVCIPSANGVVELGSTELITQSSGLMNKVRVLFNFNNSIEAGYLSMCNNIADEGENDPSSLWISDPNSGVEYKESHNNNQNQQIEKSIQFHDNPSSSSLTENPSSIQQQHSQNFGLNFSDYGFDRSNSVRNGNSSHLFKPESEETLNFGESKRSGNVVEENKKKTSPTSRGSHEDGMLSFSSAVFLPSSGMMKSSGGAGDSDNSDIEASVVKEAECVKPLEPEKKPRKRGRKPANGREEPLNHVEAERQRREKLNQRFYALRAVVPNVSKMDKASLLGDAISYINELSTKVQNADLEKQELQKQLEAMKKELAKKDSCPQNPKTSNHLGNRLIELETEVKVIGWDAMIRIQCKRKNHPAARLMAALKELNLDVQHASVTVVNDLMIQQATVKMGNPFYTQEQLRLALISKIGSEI

Molecule	interaction with GhMYC2 (GhMYC2)	interaction with GhTPL (GhTPL)
GhJAZ1 after deletion of NT domain: GhJAZ1 mutant with NT domain deleted, protein sequence SEQ ID No. 83 (protein) MSSCSESTAMKPARSPEANGTPVVPPPTMNLFPLNDKSDDVCGRNGGNPKNLTSMDLFPQQAGLASKDDSPNKLEPQTAPMTIFYGGQVIVFNDFPANKAKEIMLLASNSSSQSNNSFNPIPFTSSIARSPIESSIGVPPTSKPVHPAQRAVPGDLPIARRASLHRFLEKRKDRITAKAPYQINNSAAAPSLSGDNKSWLGLAAQSP	significantly weakened	significantly weakened
GhJAZ1: cotton JAZ1 protein, gene number Gh_A05G0260, sequence SEQ ID No. 4; prokaryotically expressed with His tag, about 30 KD (protein, His tag, prokaryotically expressed with His tag, about 30 KD) MSSCSESTAMKPARSPEKPSFAQTCNLLSQYLKEKGSFGDLSLGMTCNVEANGTPVVPPPTMNLFPLNDKSDDVCGRNGGNPKNLTSMDLFPQQAGLASKDDSPNKLEPQTAPMTIFYGGQVIVFNDFPANKAKEIMLLASNSSSQSNNSFNPIPFTSSIARSPIESSIGVPPTSKPVHPAQRAVPGDLPIARRASLHRFLEKRKDRITAKAPYQINNSAAAPSLSGDNKSWLGLAAQSP	strong	interacted
